Experimental data as given in patent US20090068110A1, “ANTIBODIES TO INSULIN-LIKE GROWTH FACTOR RECEPTOR” (Genentech, Inc., priority 2006, published 2009).

Key:
IGF-1R = IGF-1R (Homo sapiens, UniProt P08069); assay: BIACORE surface-plasmon resonance, human IGF-1R; type: binding; design: containing the extracellular domain (ECD, amino acids 1-902) tagged with 10 or 12 histidine residues at the carboxyl terminus; His10 or His12 (C); made in house; host or cells: CHO cells; details: affinity measurements, FIG. 14
Protocol: Binding affinities of antibodies to IGF-1R were determined by surface-plasmon resonance measurements on a BIACORE™ 3000 instrument (BIAcore, Inc.). Human IGF-1R-ECD was immobilized at a density of about 500 RU on the flow cells of a PIONEER™ CM5 sensor chip. Immobilization was achieved by random coupling through amino groups using a protocol provided by the manufacturer. Sensorgrams were recorded for binding of anti-IGF-1R Fab or IgG to these surfaces by injection of a series of solutions ranging from 500 nM to 3.1 nM and 250 nM to 0.78 nM in 2-fold increments, respectively. The signal from the reference cell was subtracted from the observed sensorgram. Kinetic constants were calculated by nonlinear regression analysis of the data according to a 1:1 Languir binding model using software supplied by the manufacturer. […]
Binding affinities of selected antibodies to IGF-1R were determined by surface plasmon resonance measurements on a BIACORE™ 3000 instrument (BIAcore, Inc.). […] Sensorgrams were recorded for binding of anti-IGF-1R Fab or IgG to these surfaces by injection of a series of solutions ranging from 500 nM to 3.1 nM and 250 nM to 0.78 nM in two-fold increments, respectively. […] Kinetic constants were calculated by non-linear regression analysis of the data according to a 1:1 Languir binding model using software supplied by the manufacturer.

MCF7 cells = assay: cell viability assay ([…]-GLO), MCF7; type: cell-based, human; design: key to Effect of IR3, 6D2, 9F2, and 10H5: +: growth inhibition; −: no or weak effect; details: MCF7, Breast Adenocarcinoma
Protocol: (§1) The different cell lines were cultured in their respective culture media at 37° C. in a humidified atmosphere of 5% CO2. Subsequently, cells were detached from tissue-culture flasks using the cell-dissociation solution, TRIPLE SELECT™ solution (InVitrogen, Carlsbad, Calif., USA), and centrifuged at 1000 rpm for five minutes. Detached cells were washed once with PBS, counted, and seeded in 96-well plates (Corning, N.Y., USA) at 2000 cells per well in 100 μL of culture media. After an overnight incubation at 37° C. in a humidified atmosphere of 5% CO2, the cell-culture medium was replaced with 50 μL of starvation medium consisting of serum-free RPMI 1640™ medium without phenol red. The cells were then starved for five hours in the incubator before addition of 25 μL of each anti-IGF-1R monoclonal antibody at various dilutions in serum-free RPMI 1640™ phenol red-free media. Later, 25 μL of phenol red-free RPMI 1640™ media supplemented with 4% of fetal bovine serum (FBS) (Sigma) with or without 4 ng/ml of human recombinant IGF-I were added on top of the 50 μL of antibody. The cells were then placed at 37° C. with 5% CO2 for 5 to 6 days. At the end of the assay, cell viability was measured using the […]-GLO® kit according to the manufacturer's instructions (Promega, Madison, Wis., USA).
For the cell viability assay, MCF7 cells were seeded onto 96-well plates at 2000 cells/well and incubated overnight at 37° C. in a humidified atmosphere of 5% CO2/95% air in RPMI 1640™ medium supplemented with 10% FBS (Sigma, St. Louis, Mo.) and 1% GLUTAMAX™ reagent (Promega, Madison, Wis.). The next day cells were starved in serum-free RPMI 1640™ medium (phenol red-free) for five hours followed by addition of serially diluted human chimeric versions of 9F2, 2B4, and 10H5, as well as h10H5.vX, for one hour. Subsequently, phenol red-free PRMI 1640™ medium supplemented with FBS or IGF-I was added to reach a final concentration of 1% FBS and 1 ng/mL IGF-I. Cells were then incubated with continuous IGF-1R antibody exposure. After five days, the cell viability was then determined using a […]-GLO™ kit (Promega, Madison, Wis.) according to the manufacturer's instructions.

SW480 = assay: cell viability assay, SW480; type: cell-based, human; design: key: +: growth inhibition; −: no or weak effect; details: SW480, Colorectal Adenocarcinoma
Protocol: as §1

HCT15 = assay: cell viability assay, HCT15; type: cell-based, human; design: key: +: growth inhibition; −: no or weak effect; details: HCT15, Colorectal Adenocarcinoma
Protocol: as §1

HELA = assay: cell viability assay, HELA; type: cell-based, human; design: key: +: growth inhibition; −: no or weak effect; details: Cervix Adenocarcinoma
Protocol: as §1

DLD1 = assay: cell viability assay, DLD1; type: cell-based, human; design: key: +: growth inhibition; −: no or weak effect; details: DLD1, Colorectal Adenocarcinoma
Protocol: as §1

Row | Molecule | binding to human IGF-1R (IGF-1R) | Effect of IR3, 6D2, 9F2, and 10H5 (MCF7 cells) | Effect of IR3, 6D2, 9F2, and 10H5 (SW480) | Effect of IR3, 6D2, 9F2, and 10H5 (HCT15) | Effect of IR3, 6D2, 9F2, and 10H5 (HELA) | Effect of IR3, 6D2, 9F2, and 10H5 (DLD1)
1 | 9F2: mouse monoclonal anti-IGF-1R antibody from hybridoma 9F2.6.2, ATCC PTA-7018 (antibody, V domains shown) VH: QIQLVQSGPELKKPGETVKISCKASGYTLANYGMNWVKQAPGKGFKWMGWINTNTGKPTYSDEFKGRFVFSLETSASTAYLLINNLSNEDTATYFCARSIYYYGSRYFNVWGAGTT VL: DIQMTQSTSSLSASLGDRVTISCRASQDINNYLTWYQQKPDGTVKLLIYYTSRLHSGVPSRFSGSGSGTDYSLTITNLEQEDFATYFCQQGNTLPWTFGEGTKVEIKR | strong binding to human IGF-1R | + | + | − | + | −
2 | 10H5: mouse monoclonal anti-IGF-1R antibody from hybridoma 10H5.3.4, ATCC PTA-7007 (antibody, V domains shown) VH: QVQLQQPGAELVKPGASVTLSCKASGYTFTRFWIHWVKQRPGQGLEWIGEINPSNGRTNYNENFKNKATLTVDTSSSTAYMQLSSLTSEVSVVYYCARGGRLDQWGQGTT VL: DIVMTQSQKFMSTSLGDRVSVTCKASQNVGSNVAWYQQKPGQSPEALIYSASYRYSGVPDRFTGSGSGTDFTLTISNVQSEDLAEYFCHQYNNYPYTFGGGTKVEIKR | strong binding to human IGF-1R | + | + | − | + | −
